Like-named read-outs stand apart in the source and are kept apart here.
Assays:
[1] = molecular target: TIMP-2 (Homo sapiens (Human)) (UniProt P16035); assay: self competition with 125I-labelled WT GelA-CTD on TIMP-2 coated wells
[2] = molecular target: TIMP-2 (Homo sapiens (Human)) (UniProt P16035); assay: competition with 125I-labelled WT GelA-CTD on TIMP-2 coated wells; against WT
[3] = molecular target: TIMP-2 (Homo sapiens (Human)) (UniProt P16035); assay: competition with 125I-labelled WT GelA-CTD on TIMP-2 coated wells; mutant Ki over WT Kd
[4] = molecular target: TIMP-2 (Homo sapiens (Human)) (UniProt P16035); assay: competition with 125I-labelled WT GelA-CTD on TIMP-2 coated wells; against WT; remark: listed apart in the source

| Ki/Kd [1] | fold loss in TIMP-2 binding [2] [fold] | Ki/Kd [3] | fold loss in TIMP-2 binding [4] [fold] | Substance |
| --- | --- | --- | --- | --- |
| 1 |  |  |  | FLAG GelA-CTD fusion protein, wild type (from UniProt P08253) |
|  | > 100 | 300 |  | FLAG GelA-CTD mutant #41 Asp^615→Ala (from UniProt P08253) |
|  |  | 25 |  | FLAG GelA-CTD mutant #39 Lys^604→Ala (from UniProt P08253) |
|  |  | > 500 |  | FLAG GelA-CTD mutant #250 Trp^574→Ala (from UniProt P08253) |
|  |  | 8 |  | FLAG GelA-CTD mutant #28 Asp^569→Ala (from UniProt P08253) |
|  |  | 3 |  | FLAG GelA-CTD mutant #259 Asn^611→Ala (from UniProt P08253) |
|  |  | 10 |  | FLAG GelA-CTD mutant #252 Tyr^636→Ala (from UniProt P08253) |
|  | > 100 | > 500 |  | FLAG GelA-CTD double mutant #46 Glu^641→Ala + Gly^651→Arg (from UniProt P08253) |
|  |  | > 500 | > 100 | FLAG GelA-CTD mutant #229 Lys^576→Ala (from UniProt P08253) |
|  |  | 8 |  | FLAG GelA-CTD mutant #255 Phe^650→Ala (from UniProt P08253) |
|  |  | 3 |  | FLAG GelA-CTD mutant #257 Gly^651→Ala (from UniProt P08253) |
|  |  | > 500 | > 100 | FLAG GelA-CTD mutant #247 Lys^646→Ala (from UniProt P08253) |
|  |  | 10 |  | FLAG GelA-CTD mutant #258 Asp^656→Ala (from UniProt P08253) |
|  | > 100 | > 500 | > 100 | FLAG GelA-CTD mutant #234 Arg^590→Ala (from UniProt P08253) |
|  |  | 6 |  | FLAG GelA-CTD mutant #31 Lys^579→Ala (from UniProt P08253) |
